Experimental findings from patent US12103969B2, “Anti-Siglec antibody, pharmaceutical composition comprising the same, and uses thereof” (Academia Sinica, priority 2018, dated 2024) are described below.

The test system of assay [1] is hHBV. Briefly: Bio-layer interferometry: immobilized Fc-lectin and hHBV. To be noted: hHBV, BLI, same condition as Siglec-3. The class given is binding, hepatitis B virus. The source says:
HBV was purified from blood samples of chronic hepatitis B (CHB) patients and HBV-transgenic mice, respectively. The protocol for HBV was purified by conventional method. HBV viral load was determinate by RT-PCR according to a standard HBV plasmid. HBsAg level was quantified by the HBsAg ELISA kit.
Sialidase S and sialidase C were used to remove sialoglycan from HBV or sialoglycans, respectively. Sialidase S releases only α(2-3)-linked Neu5Ac, while Sialidase C release both α(2-3) and α(2-6)-linked Neu5Ac. The sialidase-treated substrates were used for HBV-Siglec-3 binding assay and competition assay.
The interaction between human Siglec.Fc fusion protein and HBV was determined by the Bio-layer interferometry. […] The valence between HBV and human Siglec-3 was determined, which correlates the strength of multivalent association with that of monovalent association as shown in the following: • KA, surf=F (S×10^−2)^n−1×(KA, mono)^n, where KA, surf is thereciprocal of KD (HBV and Siglec-3), KA, mono is the reciprocal of KD (Biantennary a2-6 linked sialylglycopeptide and Siglec-3); n is the number of valency number; F is the statistic factor in the system and S is equal to 40(Å), which is estimated according to crystal structure of Siglec-3 published on RCSB protein data bank (Number: 5J0B). […]

Assay [2] deals with hHBV. Put plainly: Immunoprecipitation of hHBV by Siglec ECD.Fc fusion proteins. Particulars: Western blot with anti-HBs. The class given is binding, hepatitis B virus. The method, then:
HBV ([…]) was incubated with recombinant Siglec-3/-7/-9 ECD.Fc fusion proteins, respectively, for 16 hours at 4° C., followed by incubation with Sepharose-conjugated Protein A beads for immunoprecipitation. The samples were fractionated on 12% SDS-PAGE before blotting to PVDF membrane and incubated in blocking buffer (0.05% Tween 20 in TBS containing 5% BSA) at 4° C. overnight. Blots were incubated with […] polyclonal goat-anti-HBs Ab for 1 hour at room temperature, followed by incubation with Streptavidin-HRP (1:10000 dilution) for another 1 hour at room temperature, and were visualized by ECL.

B1: Siglec-7: recombinant human Siglec-7 extracellular domain (ECD).Fc fusion protein (protein)
chain: QKSNRKDYSLTMQSSVTVQEGMCVHVRCSFSYPVDSQTDSDPVHGYWFRAGNDISWKAPVATNNPAWAVQEETRDRFHLLGDPQTKNCTLSIRDARMSDAGRYFFRMEKGNIKWNYKYDQLSVNVTALTHRPNILIPGTLESGCFQNLTCSVPWACEQGTPPMISWMGTSVSPLHPSTTRSSVLTLIPQPQHHGTSLTCQVTLPGAGVTTNRTIQLNVSYPPQNLTVTVFQGEGTASTALGNSSSLSVLEGQSLRLVCAVDSNPPARLSWTWRSLTLYPSQPSNPLVLELQVHLGDEGEFTCRAQNSLGSQHVSLNLSLQQEYTGKMRPVSGVLLGAVGGAGATALVFLSFCVIFIVVRSCRKKSARPAADVGDIGMKDANTIRGSASQGNLTESWADDNPRHHGLAAHSSGEEREIQYAPLSFHKGEPQDLSGQEATNNEYSEIKIPK
Regarding B1, in the assay with hHBV [1], the “binding to hHBV” value is given as “did not bind”. Also, the “pull down of hHBV HBsAg (immunoprecipitation)” value in the assay with hHBV [2] is listed as “cannot pull down”.
